Measurements reported in publication PMC10111636.

Assays:
Details in all cases: glycan lost; control: Flag-LARP1-WT
[1] = cycloheximide chase, Western blot
[2] = Western blot, TMG with or without sh-circCLNS1A#1
[3] = cycloheximide chase, sh-circCLNS1A#1 vs sh-NC cells

For La-related protein 1 (LARP1): S672A, the degradation_or_half_life [1] was “decreases”, the “other: dependence of protein level on circCLNS1A” value [2] was “abolishes” and the “other: dependence of protein stability on circCLNS1A” value [3] was “abolishes”.
